Results: patent US20030108912, “Liver enriched transcription factor” (published 2003)

Target: T1, HNF-4 Hph I truncation (Rattus norvegicus, UniProt P22449 SEQ:1-219)
T1 chain: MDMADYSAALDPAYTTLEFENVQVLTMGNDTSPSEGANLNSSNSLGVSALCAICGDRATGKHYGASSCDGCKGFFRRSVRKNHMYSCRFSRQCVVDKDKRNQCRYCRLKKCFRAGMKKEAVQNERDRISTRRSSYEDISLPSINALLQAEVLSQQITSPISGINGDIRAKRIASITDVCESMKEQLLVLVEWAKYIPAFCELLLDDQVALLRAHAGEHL
Assay: EMSA; zinc fingers present, dimerization region absent
Conditions: label: 32P; four-base 5' overhangs

B1: APF1 (dsDNA)
DNA 1: TCGAGCGCTGGGCAAAGGTCACCTGC
DNA 2: GCAGGTGACCTTTGCCCAGCGCTCGA
binding result: no binding
